Source: the supplement of paper PMC9732359
± gives the uncertainty stated by the source.

Assay: protein stability index of a GFP-peptide fusion (yeast GPS) (PSI 1-4); higher = more stable; sorted into four equal gates, so the index is relative within each strain
In short: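 Plasmids in a pooled yeast library fused tiled 17-residue yeast protein peptides downstream of GFP and also expressed Cherry. Mid-log cultures grown without leucine were sorted into four equal gates by GFP/Cherry fluorescence ratio. Each gate's plasmids were PCR-amplified and Illumina-sequenced, and reads were matched to strains by barcodes. The protein stability index is derived by multiplying each gate's read frequency by its gate number and summing the results.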

Sequence | protein stability index (doa10∆) | protein stability index (pdr5∆) | protein stability index (san1∆) | protein stability index (ubr1∆)
LGKYEFSKILPAALDGL [ESC2] | 2.28 ± 0.055 | 2.67 ± 0.072 | 1.61 ± 0.13 | 2 ± 0.086
LLLSRVRADDLSTRFNI [RRP43] | 3.24 ± 0.091 | 3.07 ± 0.063 | 3.02 ± 0.06 | 3 ± 0.049
YLERIELSFYILYSFKL [YML103C/NUP188] | 1.49 ± 0.057 | 1.37 ± 0.044 | 1.2 ± 0.08 | 1.59 ± 0.037
KKIAQRERRAALTDFER [RPL14A] | 3.09 ± 0.3 | 3.46 ± 0.19 |  | 
NFEATKKSVLKQVQDFE [COR1] | 2.76 ± 0.13 | 2.39 ± 0.25 | 3.07 ± 0.15 | 2.91 ± 0.072
RYLVGGNKIQKVLLDSK [RPS7A] | 1.24 ± 0.084 | 2.01 ± 0.18 | 1.51 ± 0.25 | 1.7 ± 0.17
IKCSQSSHLSDNDFIIN [POP5] | 2.96 ± 0.09 | 2.85 ± 0.059 | 2.66 ± 0.059 | 2.55 ± 0.041
LNDRFQTLSSHLEALQP [PGD1] | 2.64 ± 0.04 | 2.69 ± 0.042 | 2.63 ± 0.04 | 2.54 ± 0.032
LENSSRSPRVVTNALDN [NUT1] | 2.85 ± 0.06 | 2.51 ± 0.058 | 2.279 ± 0.016 | 2.74 ± 0.057
RVASDTVHEMEEELKKL [SMC4] | 3.37 ± 0.21 | 3.33 ± 0.18 | 3.29 ± 0.12 | 3.63 ± 0.19
NDDSSSMNATMRNFSKQ [YDL088C/ASM4] | 2.76 ± 0.087 | 3.14 ± 0.11 | 2.71 ± 0.13 | 2.93 ± 0.091
TTAVEDEDDDLDEDDVN [RPB4] | 3.5 ± 0.11 | 3.27 ± 0.1 | 3.55 ± 0.15 | 3.3 ± 0.093
GRPRYDTFGEGIIITDQ [BRR2] | 3.02 ± 0.15 | 2.85 ± 0.14 | 2.62 ± 0.14 | 3.11 ± 0.11
VPYVVTHDGRTIRYPDP [RPS4A] | 3.08 ± 0.1 | 3.16 ± 0.17 |  | 3.38 ± 0.19
RCFSCGKVVGDKWESYL [RPB10] | 1.73 ± 0.14 | 2.11 ± 0.1 | 1.98 ± 0.16 | 
SKISFIDEDKLYPSFKP [SSN2] | 2.96 ± 0.14 | 2.8 ± 0.12 | 2.25 ± 0.087 | 2.54 ± 0.081
DWEDEEKYEDEDEEKIL [DSN1] | 3.28 ± 0.11 | 2.94 ± 0.16 | 3.26 ± 0.24 | 3.25 ± 0.15
ILEDYCYFRDFEYCRID [ISW2] | 2.56 ± 0.13 | 1.35 ± 0.077 | 1.4 ± 0.11 | 1.35 ± 0.038
YENKQLYFPDDYPFTQL [POP1] | 2.92 ± 0.048 | 2.99 ± 0.039 | 2.93 ± 0.043 | 3.01 ± 0.036
TSPFGGARPGRVARRNA [RPS9A] | 2.8 ± 0.15 | 2.84 ± 0.28 | 3.02 ± 0.15 | 3.28 ± 0.1
TQQAVNLEKNYLAKLSK [IRR1] | 3.06 ± 0.27 | 3.34 ± 0.23 |  | 2.91 ± 0.14
INDPTNKEYTLVHGIFG [SIN4] | 2.1 ± 0.09 | 2.21 ± 0.091 | 2.25 ± 0.13 | 1.94 ± 0.19
SSIDRGFGRCETRRKTT [RET1] | 2.41 ± 0.071 | 2.38 ± 0.12 | 2.21 ± 0.13 | 2.52 ± 0.05
MSAKAEKKPASKAPAEK [HTB1] | 3.51 ± 0.13 | 3.41 ± 0.12 | 3.16 ± 0.12 | 2.89 ± 0.098

Sequence | protein stability index (doa10∆) | protein stability index (pdr5∆) | protein stability index (san1∆) | protein stability index (ubr1∆)
KPGQNNRQQKKRRFDPS [RRP6] | 2.78 ± 0.089 | 2.99 ± 0.11 | 3.21 ± 0.13 | 2.56 ± 0.08
YKNLDRGFSKDLKSKAD [RRP6] | 3.05 ± 0.1 | 3.27 ± 0.15 | 3.31 ± 0.065 | 3.53 ± 0.099
VTVVDTPPVVVVGVVGY [RPL3] | 1.17 ± 0.051 | 1.41 ± 0.061 | 1.26 ± 0.065 | 1.39 ± 0.048
FGVSFIYAGYDDRYGYQ [PRE9] | 2.33 ± 0.09 | 2.61 ± 0.097 | 2.04 ± 0.19 | 2.45 ± 0.11
LSRAEYDSDSDSSVEDS [LIN1] | 3.14 ± 0.17 | 2.96 ± 0.16 | 2.87 ± 0.085 | 3.16 ± 0.084
LDSGDDQPQSSEAKRTK [BRR2] | 3.31 ± 0.057 | 3.26 ± 0.057 | 3.25 ± 0.048 | 3.25 ± 0.043
KHDSLRYRLLSDVSDFE [RPN1] | 2.7 ± 0.09 | 3.04 ± 0.1 | 2.75 ± 0.089 | 2.66 ± 0.098
LKKIASIPNLFPTDLEI [SWI1] | 2.59 ± 0.051 | 2.69 ± 0.044 | 2.55 ± 0.053 | 2.64 ± 0.036
LNVIIDQLAVSPEQIDA [YCS4] | 2.19 ± 0.05 | 2.44 ± 0.056 | 2.11 ± 0.064 | 2.11 ± 0.044
NKLGNKRLTEDERIEKE [CDC53] | 2.38 ± 0.15 | 3.13 ± 0.095 | 2.31 ± 0.059 | 2.42 ± 0.11
WIVVLPWFWLLPLWHLL [POP1] | 2.4 ± 0.092 | 1.21 ± 0.057 | 1.14 ± 0.13 | 1.07 ± 0.046
QESFNSVQNLDQLLTDL [NUT1] | 3.22 ± 0.092 | 3.2 ± 0.095 | 3.04 ± 0.049 | 3.17 ± 0.068
QAPTELELQVAQAFVEL [RPS7A] | 2.53 ± 0.055 | 2.82 ± 0.063 | 2.59 ± 0.047 | 2.45 ± 0.046
IEITNSNDLCSQIFDQL [SRB8] | 2.67 ± 0.057 | 2.96 ± 0.074 | 2.69 ± 0.059 | 2.74 ± 0.043
VNIEPFNIDDEIKHGVF [LIN1] | 3.48 ± 0.15 | 3 ± 0.21 | 3.45 ± 0.14 | 3.48 ± 0.077
KEEFRLMISPKDEETTE [RRI2] | 1.75 ± 0.069 | 1.68 ± 0.055 | 1.14 ± 0.14 | 1.5 ± 0.039
LALGSHNKLIQFGNACI [SSN2] | 2.13 ± 0.13 | 1.6 ± 0.087 | 2.2 ± 0.13 | 1.28 ± 0.089
GRSHTRNSTRSSGFNED [REC8] |  | 3.55 ± 0.23 |  | 
KDYEAKTKAMSLSIEEN [POP1] | 2.57 ± 0.13 | 2.55 ± 0.089 | 2.28 ± 0.082 | 2.95 ± 0.083
LLTNDESAFENLMGNRN [SNF12] | 2.96 ± 0.14 | 2.7 ± 0.12 | 3 ± 0.19 | 3.14 ± 0.078
EYINNCKKNTKKCLKLA [POP4] | 2.82 ± 0.13 | 3.1 ± 0.13 | 2.99 ± 0.077 | 2.78 ± 0.14
ANTNSVTSMEAAREKKI [YIL149C/MLP2] | 3 ± 0.077 | 3.05 ± 0.078 | 3 ± 0.049 | 3.01 ± 0.047
KDLEIRKLEISSRFKHR [GAL11] | 2.87 ± 0.099 | 2.76 ± 0.081 | 3.16 ± 0.13 | 2.81 ± 0.053
KINPFGFEQVKIALGSP [RRI2] | 2.65 ± 0.08 | 2.91 ± 0.053 | 2.77 ± 0.068 | 2.78 ± 0.07

Sequence | protein stability index (doa10∆) | protein stability index (pdr5∆) | protein stability index (san1∆) | protein stability index (ubr1∆)
SFIFQYYGLVIDLLLLG [PRP8] | 1.48 ± 0.12 | 1.2 ± 0.054 | 1.15 ± 0.16 | 1.24 ± 0.05
ETKTKKEKIKGLQDEIM [SMC4] | 3.12 ± 0.11 | 3.32 ± 0.13 | 3.13 ± 0.06 | 3.38 ± 0.068
NDLGKFIPNKQLNCVID [RPN7] | 2.49 ± 0.13 | 2.85 ± 0.19 | 2.77 ± 0.17 | 3.05 ± 0.19
RKFERARGRRRSKGFKV [RPL18A] | 3.28 ± 0.1 | 3.24 ± 0.094 | 3.54 ± 0.12 | 3.15 ± 0.059
EGKSVDELITEGNEKLA [RPP2A] |  | 3.23 ± 0.16 | 3.41 ± 0.074 | 3.45 ± 0.28
PNSERETDHANTENNDP [IRR1] | 2.69 ± 0.073 | 2.87 ± 0.052 | 2.73 ± 0.045 | 2.88 ± 0.044
EQKGQMAKKEGTPKTDS [MED4] | 3.22 ± 0.21 | 3 ± 0.22 | 3.13 ± 0.19 | 
VECTISILRKSSPEEPF [SNF12] | 1.27 ± 0.061 | 1.46 ± 0.064 | 2.32 ± 0.066 | 1.14 ± 0.051
TGAPPYYYNTKIYKLEN [YMR129W/POM152] | 2.8 ± 0.063 | 2.72 ± 0.064 | 2.5 ± 0.11 | 3.17 ± 0.041
PQLISDKFSPEDGLGPL [ARP7] | 2.84 ± 0.072 | 2.83 ± 0.067 | 2.6 ± 0.062 | 2.61 ± 0.055
NLSEARLVIKEALVERR [RPB4] | 3.33 ± 0.28 | 2.75 ± 0.13 | 2.83 ± 0.21 | 3.3 ± 0.13
DRMDVDEDESQNIAQSS [HRT1] | 2.37 ± 0.072 | 2.66 ± 0.062 | 2.21 ± 0.051 | 2.43 ± 0.05
FLLKAYINVSRGTDIDR [SRB5] |  |  |  | 3.08 ± 0.22
QLEEDENITNKVTEKVL [CSI1] | 3.2 ± 0.088 | 3.2 ± 0.09 | 3.33 ± 0.057 | 3.13 ± 0.055
ALDGDLIELLEKLDVSR [YCG1] | 3.27 ± 0.25 | 3.42 ± 0.2 | 3.16 ± 0.13 | 2.73 ± 0.2
NIRSQLLSENRSEKSTT [SRP54] | 3.04 ± 0.06 | 3 ± 0.1 | 3.01 ± 0.055 | 3.13 ± 0.038
EVNSKKKNKRALPNIEN [BRR2] | 2.9 ± 0.14 | 3.2 ± 0.096 | 3.35 ± 0.088 | 3.09 ± 0.068
ELNYFVGCKNLERLTLV [GRR1] | 2.92 ± 0.11 | 2.83 ± 0.093 | 2.19 ± 0.094 | 3.05 ± 0.081
THQSPPPPPQQSQPIAN [SNF5] | 3.01 ± 0.057 | 3.07 ± 0.043 | 2.98 ± 0.04 | 2.94 ± 0.046
QTWSYLSLYSTDLENSS [ECM29] | 2.41 ± 0.064 | 2.25 ± 0.052 | 2.66 ± 0.05 | 2.76 ± 0.049
VLILLHAERDLALAETL [SRP68] | 2.3 ± 0.06 | 3.04 ± 0.089 | 2.96 ± 0.058 | 3.11 ± 0.057
GISKKTRIAGVVYHPSN [RPS8A] | 2.53 ± 0.03 | 2.456 ± 0.024 | 2.41 ± 0.032 | 2.403 ± 0.021
